Measured values: article PMC6929985, “Allosteric regulation of protein 14-3-3ζ scaffold by small-molecule editing modulates histone H3 post-translational modifications” (Theranostics, 2020)

T1: recombinant human 14-3-3ζ protein (human), P63104
T1 chain: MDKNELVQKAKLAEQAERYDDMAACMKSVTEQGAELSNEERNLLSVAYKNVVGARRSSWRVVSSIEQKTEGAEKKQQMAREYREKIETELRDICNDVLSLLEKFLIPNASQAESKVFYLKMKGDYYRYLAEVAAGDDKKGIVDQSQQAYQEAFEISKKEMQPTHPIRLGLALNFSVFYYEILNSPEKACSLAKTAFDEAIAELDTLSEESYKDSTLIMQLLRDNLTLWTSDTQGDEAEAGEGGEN


Key:
[1] = target: T1, recombinant human 14-3-3ζ protein …; test: AUC; 'sedimentation equilibration analysis'; 25 μM 14-3-3ζ incubated with or without PTA at 25 °C for 8 h, centrifuged at 20 °C and 60000 rpm for 7 h; c(s) by SEDPHAT; monomer to dimer; conditions: remark: other sources report otherwise
[2] = target: the molecule itself; test: cross-linking; 0.025 mM 14-3-3ζ incubated with or without PTA at 25 °C for 8 h, cross-linked with 1 mM disuccinimidyl suberate for 30 min (20 mM HEPES, 100 mM KCl, 1 mM dithiothreitol, pH 8.0), quenched with 50 mM Tris-HCl; SDS-PAGE with silver staining, and LC-MS

| Binder | percent dimer (with PTA) [1] | percent dimer (without PTA) [1] | stoichiometry N [1] | binding result [2] |
| --- | --- | --- | --- | --- |
| recombinant human 14-3-3ζ protein, P63104 1-245 (natural protein) MDKNELVQKAKLAEQAERYDDMAACMKSVTEQGAELSNEERNLLSVAYKNVVGARRSSWRVVSSIEQKTEGAEKKQQMAREYREKIETELRDICNDVLSLLEKFLIPNASQAESKVFYLKMKGDYYRYLAEVAAGDDKKGIVDQSQQAYQEAFEISKKEMQPTHPIRLGLALNFSVFYYEILNSPEKACSLAKTAFDEAIAELDTLSEESYKDSTLIMQLLRDNLTLWTSDTQGDEAEAGEGGEN | 77.5% | 69.1% | 2 |  |
| 14-3-3ζ mutant (K158R) (natural protein, UniProt P63104 1-245, looked up, 14-3-3ζ with K158R) MDKNELVQKAKLAEQAERYDDMAACMKSVTEQGAELSNEERNLLSVAYKNVVGARRSSWRVVSSIEQKTEGAEKKQQMAREYREKIETELRDICNDVLSLLEKFLIPNASQAESKVFYLKMKGDYYRYLAEVAAGDDKKGIVDQSQQAYQEAFEISKREMQPTHPIRLGLALNFSVFYYEILNSPEKACSLAKTAFDEAIAELDTLSEESYKDSTLIMQLLRDNLTLWTSDTQGDEAEAGEGGEN |  |  |  | binds |
